Data taken from patent US20230302104.

B1: TMPRSS2 recombinant protein (creative biomart) (protein)
chain: WKFMGSKCSNSGIECDSSGTCINPSNWCDGVSHCPGGEDENRCVRLYGPNFILQVYSSQRKSWHPVCQDDWNENYGRAACRDMGYKNNFYSSQGIVDDSGSTSFMKLNTSAGNVDIYKKLYHSDACSSKAVVSLRCIACGVNLNSSRQSRIVGGESALPGAWPWQVSLHVQNVHVCGGSIITPEWIVTAAHCVEKPLNNPWHWTAFAGILRQSFMFYGAGYQVEKVISHPNYDSKTKNNDIALMKLQKPLTFNDLVKPVCLPNPGMMLQPEQLCWISGWGATEEKGKTSEVLNAAKVLLIETQRCNSRYVYDNLITPAMICAGFLQGNVDSCQGDSGGPLVTSKNNIWWLIGDTSWGSGCAKAYRPGVYGNVMVFTDWIYRQMRADG
B2: purified human neutrophil elastase (ELA2) (protein)
chain: IVGGRRARPHAWPFMVSLQLRGGHFCGATLIAPNFVMSAAHCVANVNVRAVRVVLGAHNLSRREPTRQVFAVQRIFENGYDPVNLLNDIVILQLNGSATINANVQVAQLPAQGRRLGNGVQCLAMGWGLLGRNRGIASVLQELNVTVVTSLCRRSNVCTLVRGRQAGVCFGDSGSPLVCNGLIHGIASFVRGGCASGLYPDAFAPVAQFVNWIDSIIQ

Assays:
[1] = target: AAT (alpha1-antitrypsin; preparation not stated in Example 15), P01009
[2] = target: rhAAT (recombinant alpha1-antitrypsin, preparations not specified per panel)

Chain of AAT (alpha1-antitrypsin; preparation not stated in Example 15), P01009 (P01009 whole entry, looked up): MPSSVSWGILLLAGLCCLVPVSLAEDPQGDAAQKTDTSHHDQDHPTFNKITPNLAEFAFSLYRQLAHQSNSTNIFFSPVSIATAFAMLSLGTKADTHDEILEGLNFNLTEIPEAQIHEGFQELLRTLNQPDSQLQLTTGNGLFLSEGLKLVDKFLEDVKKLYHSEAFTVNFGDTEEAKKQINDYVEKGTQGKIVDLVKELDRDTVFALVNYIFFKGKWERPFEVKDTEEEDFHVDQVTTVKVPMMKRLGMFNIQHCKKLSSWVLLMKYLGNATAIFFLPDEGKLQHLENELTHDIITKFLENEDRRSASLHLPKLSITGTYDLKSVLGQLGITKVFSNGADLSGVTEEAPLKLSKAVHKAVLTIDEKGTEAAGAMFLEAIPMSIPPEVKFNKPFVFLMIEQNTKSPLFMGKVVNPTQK

Row | Protein | TMPRSS2 protease activity (cleavage of Boc-QAR-AMC peptide, fluorescence, Vmax) [1] | neutrophil elastase protease activity, MeOSuc-AAPV-pNA substrate assay (Vmax, % of untreated); AAT at 1 nM and 10 nM [2]
1 | B1 | AAT inhibits TMPRSS2 protease activity | 
2 | B2 |  | AAT and rhAAT inhibits neutrophil elastase protease activity
